The test addresses human c-Met (human) (UniProt P08581). Briefly: cell-based or functional assay.

Sequence of human c-Met (human) (P08581 25-1390): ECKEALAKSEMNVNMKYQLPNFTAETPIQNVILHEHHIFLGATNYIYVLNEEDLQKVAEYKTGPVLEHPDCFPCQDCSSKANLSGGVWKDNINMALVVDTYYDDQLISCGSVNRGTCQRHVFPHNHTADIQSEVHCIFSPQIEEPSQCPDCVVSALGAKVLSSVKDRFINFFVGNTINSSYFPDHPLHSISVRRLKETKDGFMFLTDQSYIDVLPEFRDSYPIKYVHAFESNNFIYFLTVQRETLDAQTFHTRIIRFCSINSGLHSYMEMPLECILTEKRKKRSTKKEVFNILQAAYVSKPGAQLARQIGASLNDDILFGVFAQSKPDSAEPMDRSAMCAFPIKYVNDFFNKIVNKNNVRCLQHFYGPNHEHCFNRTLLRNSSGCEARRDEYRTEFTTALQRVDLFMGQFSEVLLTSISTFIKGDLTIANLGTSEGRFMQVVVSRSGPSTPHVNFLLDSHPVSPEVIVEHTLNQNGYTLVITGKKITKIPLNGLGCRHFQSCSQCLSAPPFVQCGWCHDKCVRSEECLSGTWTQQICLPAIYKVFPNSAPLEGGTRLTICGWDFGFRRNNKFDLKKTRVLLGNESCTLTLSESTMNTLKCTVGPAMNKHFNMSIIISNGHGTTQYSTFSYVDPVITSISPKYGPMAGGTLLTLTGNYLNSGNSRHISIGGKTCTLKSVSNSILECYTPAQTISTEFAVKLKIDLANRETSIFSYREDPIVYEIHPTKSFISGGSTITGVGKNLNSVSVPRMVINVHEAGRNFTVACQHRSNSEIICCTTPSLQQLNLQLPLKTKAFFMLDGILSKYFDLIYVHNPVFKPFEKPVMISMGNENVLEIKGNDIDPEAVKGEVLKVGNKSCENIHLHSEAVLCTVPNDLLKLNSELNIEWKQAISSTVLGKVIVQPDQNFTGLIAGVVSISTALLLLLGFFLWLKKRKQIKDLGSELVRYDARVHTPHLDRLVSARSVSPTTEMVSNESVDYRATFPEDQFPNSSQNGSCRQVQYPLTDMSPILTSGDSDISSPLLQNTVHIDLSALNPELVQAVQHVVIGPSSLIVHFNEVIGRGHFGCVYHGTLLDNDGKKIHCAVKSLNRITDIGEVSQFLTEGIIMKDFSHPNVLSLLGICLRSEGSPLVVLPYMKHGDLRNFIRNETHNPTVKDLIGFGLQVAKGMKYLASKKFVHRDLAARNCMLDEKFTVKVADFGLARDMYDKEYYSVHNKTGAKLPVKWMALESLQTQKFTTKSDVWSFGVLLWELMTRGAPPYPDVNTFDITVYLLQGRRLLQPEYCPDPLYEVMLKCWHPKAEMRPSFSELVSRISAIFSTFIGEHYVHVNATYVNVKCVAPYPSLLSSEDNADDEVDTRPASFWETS
Sequence of human hepatocyte growth factor (HGF) (P14210 32-728 limits assumed): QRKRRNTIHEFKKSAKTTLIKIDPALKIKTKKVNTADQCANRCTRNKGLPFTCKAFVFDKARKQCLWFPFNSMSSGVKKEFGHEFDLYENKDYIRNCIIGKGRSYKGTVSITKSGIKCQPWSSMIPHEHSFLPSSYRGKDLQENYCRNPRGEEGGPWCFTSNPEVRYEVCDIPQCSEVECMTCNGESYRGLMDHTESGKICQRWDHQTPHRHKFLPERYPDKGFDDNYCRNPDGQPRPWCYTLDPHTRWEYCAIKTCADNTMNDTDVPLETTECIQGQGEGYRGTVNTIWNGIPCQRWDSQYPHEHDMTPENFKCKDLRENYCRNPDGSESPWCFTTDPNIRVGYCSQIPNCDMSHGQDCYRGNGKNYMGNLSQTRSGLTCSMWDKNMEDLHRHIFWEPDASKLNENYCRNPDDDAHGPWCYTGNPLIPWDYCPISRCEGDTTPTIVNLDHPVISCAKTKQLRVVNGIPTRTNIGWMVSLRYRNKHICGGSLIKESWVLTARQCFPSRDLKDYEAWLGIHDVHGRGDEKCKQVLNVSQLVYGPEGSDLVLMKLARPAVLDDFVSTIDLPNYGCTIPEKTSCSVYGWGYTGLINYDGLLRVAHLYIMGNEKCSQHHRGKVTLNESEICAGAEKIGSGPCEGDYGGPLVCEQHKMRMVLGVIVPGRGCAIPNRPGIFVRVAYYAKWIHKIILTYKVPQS

As to Murine IgG1 c-Met antibody 5D5, the 3H-Thymidine Incorporation in Caki-1 Cells in the Absence of HGF (AVG CPM), antibody dose 0.1 ng/mL turned out to be 14400 CPM; the 3H-Thymidine Incorporation in Caki-1 Cells in the Absence of HGF (AVG CPM), antibody dose 0.4 ng/mL worked out at 12900 CPM; the 3H-Thymidine Incorporation in Caki-1 Cells in the Absence of HGF (AVG CPM), antibody dose 2.6 ng/mL was 12500 CPM; the 3H-Thymidine Incorporation in Caki-1 Cells in the Absence of HGF (AVG CPM), antibody dose 15.4 ng/mL was 11700 CPM. Also, the 3H-Thymidine Incorporation in Caki-1 Cells in the Absence of HGF (AVG CPM), antibody dose 92.6 ng/mL turned out to be 15600 CPM; the 3H-Thymidine Incorporation in Caki-1 Cells in the Absence of HGF (AVG CPM), antibody dose 555.6 ng/mL was determined as 20000 CPM; the 3H-Thymidine Incorporation in Caki-1 Cells in the Absence of HGF (AVG CPM), antibody dose 3333.3 ng/mL came out at 19000 CPM; the 3H-Thymidine Incorporation in Caki-1 Cells in the Absence of HGF (AVG CPM), antibody dose 20000.0 ng/mL turned out to be 19900 CPM. The substance also had a 3H-Thymidine Incorporation in Primary Human Hepatocytes in the Absence of HGF (average), dose 0.0032 ug/mL of 822; a 3H-Thymidine Incorporation in Primary Human Hepatocytes in the Absence of HGF (average), dose 0.016 ug/mL of 1720; a 3H-Thymidine Incorporation in Primary Human Hepatocytes in the Absence of HGF (average), dose 0.08 ug/mL of 3320; a 3H-Thymidine Incorporation in Primary Human Hepatocytes in the Absence of HGF (average), dose 0.4 ug/mL of 3760. In addition, the 3H-Thymidine Incorporation in Primary Human Hepatocytes in the Absence of HGF (average), dose 2 ug/mL was found to be 4910; the 3H-Thymidine Incorporation in Primary Human Hepatocytes in the Absence of HGF (average), dose 10 ug/mL worked out at 4980; the % inhibition of HGF stimulated phospho-Met (ELISA, HCT116 cells), Ab 0.0032 µg/mL was -6.07%; the % inhibition of HGF stimulated phospho-Met (ELISA, HCT116 cells), Ab 0.016 µg/mL is -3.5%. The % inhibition of HGF stimulated phospho-Met (ELISA, HCT116 cells), Ab 0.08 µg/mL came out at 11.9%; the % inhibition of HGF stimulated phospho-Met (ELISA, HCT116 cells), Ab 0.4 µg/mL is 42.5%; the % inhibition of HGF stimulated phospho-Met (ELISA, HCT116 cells), Ab 2 µg/mL turned out to be 63.8%; the % inhibition of HGF stimulated phospho-Met (ELISA, HCT116 cells), Ab 10 µg/mL stood at 64.1%. The substance also came in with an AVG CPM, 3H-thymidine incorporation in MKN45 cells, Ab 0.0 ng/mL (no antibody) of 50300 CPM; an AVG CPM, 3H-thymidine incorporation in MKN45 cells, Ab 0.1 ng/mL of 51900 CPM; an AVG CPM, 3H-thymidine incorporation in MKN45 cells, Ab 0.4 ng/mL of 49600 CPM; an AVG CPM, 3H-thymidine incorporation in MKN45 cells, Ab 2.6 ng/mL of 55000 CPM. The AVG CPM, 3H-thymidine incorporation in MKN45 cells, Ab 15.4 ng/mL worked out at 49800 CPM; the AVG CPM, 3H-thymidine incorporation in MKN45 cells, Ab 92.6 ng/mL worked out at 39600 CPM; the AVG CPM, 3H-thymidine incorporation in MKN45 cells, Ab 555.6 ng/mL is 39500 CPM; the AVG CPM, 3H-thymidine incorporation in MKN45 cells, Ab 3333.3 ng/mL turned out to be 38200 CPM. This substance yielded an AVG CPM, 3H-thymidine incorporation in MKN45 cells, Ab 20000.0 ng/mL of 35100 CPM; an H441 Scratch Assay, Avg. %, antibody 10 ug/mL of 244%; a HepG2 Cell Invasiveness, Average Cell Number Per 2.5x Field, antibody 10.00 ug/mL (cells per 2.5x field) of 85; a Mean Fluorescence (c-Met left on the surface of MKN45 cells, FACS), Ab 5.00 ug/mL of 92.9. The Percent of DU145 Cells in Colonies (scatter assay), antibody 20 ug/mL worked out at 14.4%; the Tube Formation in ECFC Cells, Total Tube Area (Avg.), antibody 10 ug/mL came out at 147000; the Tubular Morphogenesis Agonist activity (fold stimulation) in HepG2 cells, antibody 50 ug/ml (fold stimulation) came to 4.9; the p-Met signal (pY1349 ELISA, A549 cells), Ab Conc. 5 (ng/mL as printed) was 3.29.
Take “human hepatocyte growth factor (HGF) (from UniProt P14210 32-728) (ligand)”: the 3H-Thymidine Incorporation in Primary Human Hepatocytes (ave), HGF 200 ng/mL turned out to be 6290; the H441 Scratch Assay, Avg. %, HGF 200 ng/mL was determined as 364%; the HepG2 Cell Invasiveness, Average Cell Number Per 2.5x Field, HGF 50 ng/mL (cells per 2.5x field) worked out at 510; the Percent of DU145 Cells in Colonies (scatter assay), HGF 20 ng/mL was 8.15%. The substance further registered a Staurosporine-Induced Apoptosis in Caki-1 Cells, Average A450 nm, HGF 0.02 ng/mL of 0.97 A450 nm; a Staurosporine-Induced Apoptosis in Caki-1 Cells, Average A450 nm, HGF 0.23 ng/mL of 0.93 A450 nm; a Staurosporine-Induced Apoptosis in Caki-1 Cells, Average A450 nm, HGF 2.25 ng/mL of 0.73 A450 nm; a Staurosporine-Induced Apoptosis in Caki-1 Cells, Average A450 nm, HGF 22.5 ng/mL of 0.58 A450 nm. The substance also registered a Staurosporine-Induced Apoptosis in Caki-1 Cells, Average A450 nm, HGF 225 ng/mL of 0.45 A450 nm; a Tube Formation in ECFC Cells, Total Tube Area (Avg.), HGF 100 ng/mL of 212000; a Tubular Morphogenesis Agonist activity (fold stimulation) in HepG2 cells, HGF 50 ng/ml (fold stimulation) of 5.4.

Values taken from patent publication US20100129369A1.
